In article PMC9482650, “Quantitative fragmentomics allow affinity mapping of interactomes” (Nature Communications, 2022):

Experiments:
Test in all cases: holdup assay
Design in all cases: key: below the threshold = too weak to quantify, mostly under pKd 3.1 to 4
Settings in all cases: plain residues with an end cap or a label only (N-terminal biotin on a linker: ado-ado)
FRMPD4, Q14CM0 = target: FRMPD4, Q14CM0
DLG2_3, Q15700 = target: DLG2_3, Q15700
APBA2_1, Q99767 = target: T1, APBA2_1, Q99767
T1 sequence (Q99767 563-664, limits assumed, looked up): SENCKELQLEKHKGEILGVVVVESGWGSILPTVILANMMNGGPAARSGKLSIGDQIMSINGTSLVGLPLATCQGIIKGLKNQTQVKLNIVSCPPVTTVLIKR

MAGI2_2, Q86UL8 = target: MAGI2_2, Q86UL8
Sequence of MAGI2_2, Q86UL8 (Q86UL8 410-522): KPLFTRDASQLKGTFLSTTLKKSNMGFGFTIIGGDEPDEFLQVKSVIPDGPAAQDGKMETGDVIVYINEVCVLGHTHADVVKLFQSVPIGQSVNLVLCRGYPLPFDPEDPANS

NHERF3_3, Q5T2W1 = target: T2, NHERF3_3, Q5T2W1
T2 sequence (Q5T2W1 238-333, limits assumed, looked up): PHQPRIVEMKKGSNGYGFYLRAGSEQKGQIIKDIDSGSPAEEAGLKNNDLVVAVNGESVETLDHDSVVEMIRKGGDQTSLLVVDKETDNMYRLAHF

DLG1_1, Q12959 = target: DLG1_1, Q12959
GRIP1_7, Q9Y3R0 = target: T3, GRIP1_7, Q9Y3R0
T3 sequence (Q9Y3R0 999-1096, limits assumed, looked up): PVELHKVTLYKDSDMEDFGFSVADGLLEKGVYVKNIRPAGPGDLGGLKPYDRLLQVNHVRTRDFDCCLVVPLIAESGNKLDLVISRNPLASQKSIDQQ

MAGI2_3, Q86UL8 = target: MAGI2_3, Q86UL8
Sequence of MAGI2_3, Q86UL8 (Q86UL8 600-682): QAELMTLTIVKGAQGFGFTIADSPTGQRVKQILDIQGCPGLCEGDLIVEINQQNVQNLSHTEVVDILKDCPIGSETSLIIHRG

Inadl_5, Q8NI35 = target: Inadl_5, Q8NI35
Sequence of Inadl_5, Q8NI35 (Q8NI35 673-780): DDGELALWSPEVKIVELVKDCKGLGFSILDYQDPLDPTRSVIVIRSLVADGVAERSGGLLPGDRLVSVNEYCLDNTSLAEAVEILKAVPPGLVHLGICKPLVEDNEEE

APBA1_1, Q02410 = target: T4, APBA1_1, Q02410
T4 sequence (Q02410 651-752, limits assumed, looked up): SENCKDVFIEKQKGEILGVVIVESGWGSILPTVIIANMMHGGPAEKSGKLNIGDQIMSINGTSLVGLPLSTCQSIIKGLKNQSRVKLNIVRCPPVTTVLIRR

FRMPD3, Q5JV73 = target: FRMPD3, Q5JV73
Sequence of FRMPD3, Q5JV73 (Q5JV73 12-100): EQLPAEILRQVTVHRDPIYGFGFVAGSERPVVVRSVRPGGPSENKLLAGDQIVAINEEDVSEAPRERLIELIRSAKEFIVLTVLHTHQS

NHERF3_1, Q5T2W1 = target: T5, NHERF3_1, Q5T2W1
T5 sequence (Q5T2W1 4-100, limits assumed, looked up): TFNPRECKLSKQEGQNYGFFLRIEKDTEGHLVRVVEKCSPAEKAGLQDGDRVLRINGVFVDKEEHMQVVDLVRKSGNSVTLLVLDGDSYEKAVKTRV

HTRA2, O43464 = target: HTRA2, O43464
Sequence of HTRA2, O43464 (O43464 355-458): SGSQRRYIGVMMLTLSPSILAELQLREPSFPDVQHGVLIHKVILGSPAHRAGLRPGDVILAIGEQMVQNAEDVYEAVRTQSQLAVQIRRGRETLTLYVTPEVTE

DFNB31_1, Q9P202 = target: T6, DFNB31_1, Q9P202
T6 sequence (Q9P202 135-233, limits assumed, looked up): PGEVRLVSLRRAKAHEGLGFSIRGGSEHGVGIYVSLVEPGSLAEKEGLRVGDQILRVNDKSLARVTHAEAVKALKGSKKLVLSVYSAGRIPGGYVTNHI

NHERF3_4, Q5T2W1 = target: T7, NHERF3_4, Q5T2W1
T7 sequence (Q5T2W1 373-468, limits assumed, looked up): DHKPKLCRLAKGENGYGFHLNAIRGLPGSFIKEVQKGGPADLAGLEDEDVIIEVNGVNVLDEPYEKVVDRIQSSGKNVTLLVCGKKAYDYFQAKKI

PTPN13_1, Q12923 = target: T8, PTPN13_1, Q12923
T8 sequence (Q12923 1088-1188, limits assumed, looked up): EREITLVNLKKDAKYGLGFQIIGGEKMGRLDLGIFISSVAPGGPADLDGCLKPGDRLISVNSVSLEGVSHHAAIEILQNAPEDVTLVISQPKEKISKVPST

IL16_4, Q14005 = target: IL16_4, Q14005
Sequence of IL16_4, Q14005 (Q14005 1229-1329): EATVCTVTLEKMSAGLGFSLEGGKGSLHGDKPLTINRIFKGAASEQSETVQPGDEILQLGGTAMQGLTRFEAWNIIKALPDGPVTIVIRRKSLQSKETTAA

DLG1_2, Q12959 = target: DLG1_2, Q12959
Inadl_2, Q8NI35 = target: Inadl_2, Q8NI35
Sequence of Inadl_2, Q8NI35 (Q8NI35 238-335): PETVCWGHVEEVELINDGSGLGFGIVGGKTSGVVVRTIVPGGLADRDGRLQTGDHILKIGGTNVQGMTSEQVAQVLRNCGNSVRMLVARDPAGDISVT

FRMPD1, Q5SYB0 = target: T9, FRMPD1, Q5SYB0
T9 sequence (Q5SYB0 52-145, limits assumed, looked up): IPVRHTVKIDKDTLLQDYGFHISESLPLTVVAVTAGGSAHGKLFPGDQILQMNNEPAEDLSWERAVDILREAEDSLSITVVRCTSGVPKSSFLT

GRIP2_7, Q9C0E4 = target: GRIP2_7, Q9C0E4
Sequence of GRIP2_7, Q9C0E4 (Q9C0E4 934-1023): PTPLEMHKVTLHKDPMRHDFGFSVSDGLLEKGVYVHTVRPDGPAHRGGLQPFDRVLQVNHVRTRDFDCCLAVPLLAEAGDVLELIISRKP

LRRC7, Q96NW7 = target: T10, LRRC7, Q96NW7
T10 sequence (Q96NW7 1440-1537, limits assumed, looked up): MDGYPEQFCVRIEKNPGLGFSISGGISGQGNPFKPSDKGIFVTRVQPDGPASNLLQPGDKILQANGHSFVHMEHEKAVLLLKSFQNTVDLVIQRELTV

GRID2IP_1, A4D2P6 = target: GRID2IP_1, A4D2P6
Sequence of GRID2IP_1, A4D2P6 (A4D2P6 1-87): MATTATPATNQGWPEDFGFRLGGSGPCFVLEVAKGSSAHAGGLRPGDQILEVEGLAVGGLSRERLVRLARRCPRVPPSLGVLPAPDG

APBA3_1, O96018 = target: T11, APBA3_1, O96018
T11 sequence (O96018 389-490, limits assumed, looked up): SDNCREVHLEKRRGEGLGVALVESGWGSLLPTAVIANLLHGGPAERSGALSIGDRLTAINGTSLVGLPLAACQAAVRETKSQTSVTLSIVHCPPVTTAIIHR

APBA1_2, Q02410 = target: T12, APBA1_2, Q02410
T12 sequence (Q02410 742-832, limits assumed, looked up): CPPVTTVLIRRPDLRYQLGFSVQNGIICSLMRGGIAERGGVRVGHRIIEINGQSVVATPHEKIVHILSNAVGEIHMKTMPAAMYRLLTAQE

DLG1_3, Q12959 = target: DLG1_3, Q12959

Sequence of FRMPD4, Q14CM0 (Q14CM0 67-160): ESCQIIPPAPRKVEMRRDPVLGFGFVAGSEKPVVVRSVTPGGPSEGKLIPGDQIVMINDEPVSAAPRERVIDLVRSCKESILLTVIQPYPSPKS

YRLAQESGLV [ABCC6, O95255]
pKd (FRMPD4, Q14CM0): below the threshold
pKd (DLG2_3, Q15700): below the threshold
pKd (APBA2_1, Q99767): below the threshold
pKd (MAGI2_2, Q86UL8): below the threshold
pKd (NHERF3_3, Q5T2W1): below the threshold
pKd (DLG1_1, Q12959): below the threshold
pKd (GRIP1_7, Q9Y3R0): below the threshold
pKd (MAGI2_3, Q86UL8): below the threshold
pKd (Inadl_5, Q8NI35): below the threshold
pKd (APBA1_1, Q02410): below the threshold
pKd (FRMPD3, Q5JV73): below the threshold
pKd (NHERF3_1, Q5T2W1): 3.76
pKd (HTRA2, O43464): below the threshold
pKd (DFNB31_1, Q9P202): below the threshold
pKd (NHERF3_4, Q5T2W1): below the threshold
pKd (PTPN13_1, Q12923): below the threshold
pKd (IL16_4, Q14005): below the threshold
pKd (DLG1_2, Q12959): below the threshold
pKd (Inadl_2, Q8NI35): below the threshold
pKd (FRMPD1, Q5SYB0): below the threshold
pKd (GRIP2_7, Q9C0E4): below the threshold
pKd (LRRC7, Q96NW7): below the threshold
pKd (GRID2IP_1, A4D2P6): below the threshold
pKd (APBA3_1, O96018): below the threshold
pKd (APBA1_2, Q02410): below the threshold
pKd (DLG1_3, Q12959): below the threshold

ETQVTAETVI [TMEM225B, P0DP42]
pKd (FRMPD4, Q14CM0): below the threshold
pKd (DLG2_3, Q15700): 3.66
pKd (APBA2_1, Q99767): below the threshold
pKd (MAGI2_2, Q86UL8): below the threshold
pKd (NHERF3_3, Q5T2W1): below the threshold
pKd (DLG1_1, Q12959): 3.91
pKd (GRIP1_7, Q9Y3R0): below the threshold
pKd (MAGI2_3, Q86UL8): below the threshold
pKd (Inadl_5, Q8NI35): below the threshold
pKd (APBA1_1, Q02410): below the threshold
pKd (FRMPD3, Q5JV73): below the threshold
pKd (NHERF3_1, Q5T2W1): 4.68
pKd (HTRA2, O43464): below the threshold
pKd (DFNB31_1, Q9P202): 4.59
pKd (NHERF3_4, Q5T2W1): below the threshold
pKd (PTPN13_1, Q12923): below the threshold
pKd (IL16_4, Q14005): below the threshold
pKd (DLG1_2, Q12959): 4.37
pKd (Inadl_2, Q8NI35): below the threshold
pKd (FRMPD1, Q5SYB0): below the threshold
pKd (GRIP2_7, Q9C0E4): below the threshold
pKd (LRRC7, Q96NW7): below the threshold
pKd (GRID2IP_1, A4D2P6): below the threshold
pKd (APBA3_1, O96018): below the threshold
pKd (APBA1_2, Q02410): below the threshold
pKd (DLG1_3, Q12959): below the threshold

RKPKPSSSCC [RAB9A, P51151]
pKd (FRMPD4, Q14CM0): below the threshold
pKd (DLG2_3, Q15700): 3.53
pKd (APBA2_1, Q99767): below the threshold
pKd (MAGI2_2, Q86UL8): below the threshold
pKd (NHERF3_3, Q5T2W1): below the threshold
pKd (DLG1_1, Q12959): below the threshold
pKd (GRIP1_7, Q9Y3R0): below the threshold
pKd (MAGI2_3, Q86UL8): below the threshold
pKd (Inadl_5, Q8NI35): below the threshold
pKd (APBA1_1, Q02410): below the threshold
pKd (FRMPD3, Q5JV73): below the threshold
pKd (NHERF3_1, Q5T2W1): 3.61
pKd (HTRA2, O43464): below the threshold
pKd (DFNB31_1, Q9P202): below the threshold
pKd (NHERF3_4, Q5T2W1): below the threshold
pKd (PTPN13_1, Q12923): below the threshold
pKd (IL16_4, Q14005): below the threshold
pKd (DLG1_2, Q12959): below the threshold
pKd (Inadl_2, Q8NI35): below the threshold
pKd (FRMPD1, Q5SYB0): below the threshold
pKd (GRIP2_7, Q9C0E4): below the threshold
pKd (LRRC7, Q96NW7): below the threshold
pKd (GRID2IP_1, A4D2P6): below the threshold
pKd (APBA3_1, O96018): below the threshold
pKd (APBA1_2, Q02410): below the threshold
pKd (DLG1_3, Q12959): below the threshold

LKVPPEERLI [CRB2, Q5IJ48]
pKd (FRMPD4, Q14CM0): below the threshold
pKd (DLG2_3, Q15700): below the threshold
pKd (APBA2_1, Q99767): below the threshold
pKd (MAGI2_2, Q86UL8): below the threshold
pKd (NHERF3_3, Q5T2W1): below the threshold
pKd (DLG1_1, Q12959): below the threshold
pKd (GRIP1_7, Q9Y3R0): below the threshold
pKd (MAGI2_3, Q86UL8): below the threshold
pKd (Inadl_5, Q8NI35): below the threshold
pKd (APBA1_1, Q02410): below the threshold
pKd (FRMPD3, Q5JV73): below the threshold
pKd (NHERF3_1, Q5T2W1): below the threshold
pKd (HTRA2, O43464): below the threshold
pKd (DFNB31_1, Q9P202): below the threshold
pKd (NHERF3_4, Q5T2W1): below the threshold
pKd (PTPN13_1, Q12923): below the threshold
pKd (IL16_4, Q14005): below the threshold
pKd (DLG1_2, Q12959): below the threshold
pKd (Inadl_2, Q8NI35): below the threshold
pKd (FRMPD1, Q5SYB0): below the threshold
pKd (GRIP2_7, Q9C0E4): below the threshold
pKd (LRRC7, Q96NW7): below the threshold
pKd (GRID2IP_1, A4D2P6): below the threshold
pKd (APBA3_1, O96018): below the threshold
pKd (APBA1_2, Q02410): below the threshold
pKd (DLG1_3, Q12959): below the threshold
